In patent publication EP4692114A1, “CALCITONIN ANALOGUE, AND DERIVATIVE THEREOF AND USE THEREOF” (Hangzhou Sciwind Biosciences Co., Ltd., priority 2023, dated 2024):
Each block holds one binder with its values, some of them ahead of it. *1 amine or outer side, *2 acyl side, *3 side chain or, on linkers, in order; H or OH if unused. Primed or numbered codes have the meaning given here. [ ]: non-standard residue; d: D form. The star is where a group is joined. C20 diacid = O=C(O)CCCCCCCCCCCCCCCCCCC(=O)*; C18 diacid = O=C(O)CCCCCCCCCCCCCCCCC(=O)*; γGlu = O=C(O)[C@H](CCC(=O)[*:2])N[*:1]; βAsp = O=C(O)[C@H](CC(=O)[*:2])N[*:1]; Trx′ = not defined here; AEEA = NCCOCCOCC(=O)O

Biological target: T1, human amylin receptor (AMY3) on CHO-K1/Gal5/AMY3 cells (human, UniProt P30988 25-474; O60896 24-148)
T1 sequence (looked up) 1: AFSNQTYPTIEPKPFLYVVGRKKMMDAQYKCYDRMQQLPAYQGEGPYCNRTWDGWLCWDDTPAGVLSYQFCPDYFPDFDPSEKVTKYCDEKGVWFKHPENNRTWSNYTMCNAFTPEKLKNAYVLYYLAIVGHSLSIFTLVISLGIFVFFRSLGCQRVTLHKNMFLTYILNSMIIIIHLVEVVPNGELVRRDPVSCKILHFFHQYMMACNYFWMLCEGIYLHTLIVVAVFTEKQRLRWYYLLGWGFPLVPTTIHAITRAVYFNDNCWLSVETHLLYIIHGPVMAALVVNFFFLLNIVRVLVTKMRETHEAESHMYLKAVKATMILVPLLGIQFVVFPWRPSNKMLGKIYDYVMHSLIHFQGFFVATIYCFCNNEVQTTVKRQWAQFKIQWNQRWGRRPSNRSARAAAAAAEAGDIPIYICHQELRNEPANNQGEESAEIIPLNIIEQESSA
T1 sequence (looked up) 2: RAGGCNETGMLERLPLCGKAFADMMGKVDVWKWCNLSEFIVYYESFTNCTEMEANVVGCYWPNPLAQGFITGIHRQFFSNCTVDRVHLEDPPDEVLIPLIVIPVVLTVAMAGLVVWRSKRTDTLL
Test: cell-based or functional assay

B2: calcitonin derivative M43 (peptide)
peptide: {C20 diacid-βAsp}-ASQLSTAVLGRLSDELHRLQDYPRTDVGSGSP-NH2
SMILES: CC(C)C[C@H](NC(=O)[C@H](CCCNC(=N)N)NC(=O)CNC(=O)[C@H](CC(C)C)NC(=O)[C@@H](NC(=O)[C@H](C)NC(=O)[C@@H](NC(=O)[C@H](CO)NC(=O)[C@H](CC(C)C)NC(=O)[C@H](CCC(N)=O)NC(=O)[C@H](CO)NC(=O)[C@H](C)NC(=O)C[C@H](NC(=O)CCCCCCCCCCCCCCCCCCC(=O)O)C(=O)O)[C@@H](C)O)C(C)C)C(=O)N[C@@H](CO)C(=O)N[C@@H](CC(=O)O)C(=O)N[C@@H](CCC(=O)O)C(=O)N[C@@H](CC(C)C)C(=O)N[C@@H](Cc1c[nH]cn1)C(=O)N[C@@H](CCCNC(=N)N)C(=O)N[C@@H](CC(C)C)C(=O)N[C@@H](CCC(N)=O)C(=O)N[C@@H](CC(=O)O)C(=O)N[C@@H](Cc1ccc(O)cc1)C(=O)N1CCC[C@H]1C(=O)N[C@@H](CCCNC(=N)N)C(=O)N[C@H](C(=O)N[C@@H](CC(=O)O)C(=O)N[C@H](C(=O)NCC(=O)N[C@@H](CO)C(=O)NCC(=O)N[C@@H](CO)C(=O)N1CCC[C@H]1C(N)=O)C(C)C)[C@@H](C)O
- EC50/nM, CRE-luciferase in amylin receptor/CRE-luc CHO cells: 0.017 nM

B3: calcitonin derivative M13 (peptide)
peptide: {C20 diacid-γGlu}-ASQLSTAVLGRLSQELHRLEDYPRTDVGSGSP-NH2
SMILES: CC(C)C[C@H](NC(=O)[C@H](CCCNC(=N)N)NC(=O)CNC(=O)[C@H](CC(C)C)NC(=O)[C@@H](NC(=O)[C@H](C)NC(=O)[C@@H](NC(=O)[C@H](CO)NC(=O)[C@H](CC(C)C)NC(=O)[C@H](CCC(N)=O)NC(=O)[C@H](CO)NC(=O)[C@H](C)NC(=O)CC[C@H](NC(=O)CCCCCCCCCCCCCCCCCCC(=O)O)C(=O)O)[C@@H](C)O)C(C)C)C(=O)N[C@@H](CO)C(=O)N[C@@H](CCC(N)=O)C(=O)N[C@@H](CCC(=O)O)C(=O)N[C@@H](CC(C)C)C(=O)N[C@@H](Cc1c[nH]cn1)C(=O)N[C@@H](CCCNC(=N)N)C(=O)N[C@@H](CC(C)C)C(=O)N[C@@H](CCC(=O)O)C(=O)N[C@@H](CC(=O)O)C(=O)N[C@@H](Cc1ccc(O)cc1)C(=O)N1CCC[C@H]1C(=O)N[C@@H](CCCNC(=N)N)C(=O)N[C@H](C(=O)N[C@@H](CC(=O)O)C(=O)N[C@H](C(=O)NCC(=O)N[C@@H](CO)C(=O)NCC(=O)N[C@@H](CO)C(=O)N1CCC[C@H]1C(N)=O)C(C)C)[C@@H](C)O
- EC50/nM, CRE-luciferase in amylin receptor/CRE-luc CHO cells: 0.017 nM

Binder: {C18 diacid-Trx′}-ASQLSTAVLGRLSDELHRLQDYPRTDVGSGSP-NH2 (reading uncertain) [calcitonin derivative M46]
- EC50/nM, CRE-luciferase in amylin receptor/CRE-luc CHO cells: 0.119 nM

B4: calcitonin derivative M44 (peptide)
peptide: {C18 diacid}-DASQLSTAVLGRLSDELHRLQDYPRTDVGSGSP-NH2
SMILES: CC(C)C[C@H](NC(=O)[C@H](CCCNC(=N)N)NC(=O)CNC(=O)[C@H](CC(C)C)NC(=O)[C@@H](NC(=O)[C@H](C)NC(=O)[C@@H](NC(=O)[C@H](CO)NC(=O)[C@H](CC(C)C)NC(=O)[C@H](CCC(N)=O)NC(=O)[C@H](CO)NC(=O)[C@H](C)NC(=O)[C@H](CC(=O)O)NC(=O)CCCCCCCCCCCCCCCCC(=O)O)[C@@H](C)O)C(C)C)C(=O)N[C@@H](CO)C(=O)N[C@@H](CC(=O)O)C(=O)N[C@@H](CCC(=O)O)C(=O)N[C@@H](CC(C)C)C(=O)N[C@@H](Cc1c[nH]cn1)C(=O)N[C@@H](CCCNC(=N)N)C(=O)N[C@@H](CC(C)C)C(=O)N[C@@H](CCC(N)=O)C(=O)N[C@@H](CC(=O)O)C(=O)N[C@@H](Cc1ccc(O)cc1)C(=O)N1CCC[C@H]1C(=O)N[C@@H](CCCNC(=N)N)C(=O)N[C@H](C(=O)N[C@@H](CC(=O)O)C(=O)N[C@H](C(=O)NCC(=O)N[C@@H](CO)C(=O)NCC(=O)N[C@@H](CO)C(=O)N1CCC[C@H]1C(N)=O)C(C)C)[C@@H](C)O
- EC50/nM, CRE-luciferase in amylin receptor/CRE-luc CHO cells: 0.016 nM

B6: calcitonin derivative M12 (peptide)
peptide: {C20 diacid-γGlu}-ASQLSTAVLGRLSTELHRLQDYPRTDVGSGSP-NH2
SMILES: CC(C)C[C@H](NC(=O)[C@H](CCCNC(=N)N)NC(=O)CNC(=O)[C@H](CC(C)C)NC(=O)[C@@H](NC(=O)[C@H](C)NC(=O)[C@@H](NC(=O)[C@H](CO)NC(=O)[C@H](CC(C)C)NC(=O)[C@H](CCC(N)=O)NC(=O)[C@H](CO)NC(=O)[C@H](C)NC(=O)CC[C@H](NC(=O)CCCCCCCCCCCCCCCCCCC(=O)O)C(=O)O)[C@@H](C)O)C(C)C)C(=O)N[C@@H](CO)C(=O)N[C@H](C(=O)N[C@@H](CCC(=O)O)C(=O)N[C@@H](CC(C)C)C(=O)N[C@@H](Cc1c[nH]cn1)C(=O)N[C@@H](CCCNC(=N)N)C(=O)N[C@@H](CC(C)C)C(=O)N[C@@H](CCC(N)=O)C(=O)N[C@@H](CC(=O)O)C(=O)N[C@@H](Cc1ccc(O)cc1)C(=O)N1CCC[C@H]1C(=O)N[C@@H](CCCNC(=N)N)C(=O)N[C@H](C(=O)N[C@@H](CC(=O)O)C(=O)N[C@H](C(=O)NCC(=O)N[C@@H](CO)C(=O)NCC(=O)N[C@@H](CO)C(=O)N1CCC[C@H]1C(N)=O)C(C)C)[C@@H](C)O)[C@@H](C)O
- EC50/nM, CRE-luciferase in amylin receptor/CRE-luc CHO cells: 0.017 nM

More lines, now with the values ahead:

- EC50/nM, CRE-luciferase in amylin receptor/CRE-luc CHO cells: 0.016 nM
B1: calcitonin derivative M27 (peptide)
peptide: {C20 diacid-γGlu}-ISQLSTIVLGRLSQELHRLQDYPRTDVGSGSP-NH2
SMILES: CC[C@H](C)[C@H](NC(=O)CC[C@H](NC(=O)CCCCCCCCCCCCCCCCCCC(=O)O)C(=O)O)C(=O)N[C@@H](CO)C(=O)N[C@@H](CCC(N)=O)C(=O)N[C@@H](CC(C)C)C(=O)N[C@@H](CO)C(=O)N[C@H](C(=O)N[C@H](C(=O)N[C@H](C(=O)N[C@@H](CC(C)C)C(=O)NCC(=O)N[C@@H](CCCNC(=N)N)C(=O)N[C@@H](CC(C)C)C(=O)N[C@@H](CO)C(=O)N[C@@H](CCC(N)=O)C(=O)N[C@@H](CCC(=O)O)C(=O)N[C@@H](CC(C)C)C(=O)N[C@@H](Cc1c[nH]cn1)C(=O)N[C@@H](CCCNC(=N)N)C(=O)N[C@@H](CC(C)C)C(=O)N[C@@H](CCC(N)=O)C(=O)N[C@@H](CC(=O)O)C(=O)N[C@@H](Cc1ccc(O)cc1)C(=O)N1CCC[C@H]1C(=O)N[C@@H](CCCNC(=N)N)C(=O)N[C@H](C(=O)N[C@@H](CC(=O)O)C(=O)N[C@H](C(=O)NCC(=O)N[C@@H](CO)C(=O)NCC(=O)N[C@@H](CO)C(=O)N1CCC[C@H]1C(N)=O)C(C)C)[C@@H](C)O)C(C)C)[C@@H](C)CC)[C@@H](C)O

- EC50/nM, CRE-luciferase in amylin receptor/CRE-luc CHO cells: 0.015 nM
Binder: {C20 diacid-Trx′-AEEA-AEEA}-ASQLSTAVLGRLSEELHRLQDYPRTDVGSGSP-NH2 (reading uncertain) [calcitonin derivative M61]

- EC50/nM, CRE-luciferase in amylin receptor/CRE-luc CHO cells: 0.016 nM
B5: calcitonin derivative M60 (peptide)
peptide: {C20 diacid}-D[AEEA][AEEA]ASQLSTAVLGRLSEELHRLQDYPRTDVGSGSP-NH2
SMILES: CC(C)C[C@H](NC(=O)[C@H](CCCNC(=N)N)NC(=O)CNC(=O)[C@H](CC(C)C)NC(=O)[C@@H](NC(=O)[C@H](C)NC(=O)[C@@H](NC(=O)[C@H](CO)NC(=O)[C@H](CC(C)C)NC(=O)[C@H](CCC(N)=O)NC(=O)[C@H](CO)NC(=O)[C@H](C)NC(=O)COCCOCCNC(=O)COCCOCCNC(=O)[C@H](CC(=O)O)NC(=O)CCCCCCCCCCCCCCCCCCC(=O)O)[C@@H](C)O)C(C)C)C(=O)N[C@@H](CO)C(=O)N[C@@H](CCC(=O)O)C(=O)N[C@@H](CCC(=O)O)C(=O)N[C@@H](CC(C)C)C(=O)N[C@@H](Cc1c[nH]cn1)C(=O)N[C@@H](CCCNC(=N)N)C(=O)N[C@@H](CC(C)C)C(=O)N[C@@H](CCC(N)=O)C(=O)N[C@@H](CC(=O)O)C(=O)N[C@@H](Cc1ccc(O)cc1)C(=O)N1CCC[C@H]1C(=O)N[C@@H](CCCNC(=N)N)C(=O)N[C@H](C(=O)N[C@@H](CC(=O)O)C(=O)N[C@H](C(=O)NCC(=O)N[C@@H](CO)C(=O)NCC(=O)N[C@@H](CO)C(=O)N1CCC[C@H]1C(N)=O)C(C)C)[C@@H](C)O

- EC50/nM, CRE-luciferase in amylin receptor/CRE-luc CHO cells: 0.017 nM
B7: calcitonin derivative M28 (peptide)
peptide: {C20 diacid-γGlu}-SSQLSTSVLGRLSQELHRLQDYPRTDVGSGSP-NH2
SMILES: CC(C)C[C@H](NC(=O)[C@H](CCCNC(=N)N)NC(=O)CNC(=O)[C@H](CC(C)C)NC(=O)[C@@H](NC(=O)[C@H](CO)NC(=O)[C@@H](NC(=O)[C@H](CO)NC(=O)[C@H](CC(C)C)NC(=O)[C@H](CCC(N)=O)NC(=O)[C@H](CO)NC(=O)[C@H](CO)NC(=O)CC[C@H](NC(=O)CCCCCCCCCCCCCCCCCCC(=O)O)C(=O)O)[C@@H](C)O)C(C)C)C(=O)N[C@@H](CO)C(=O)N[C@@H](CCC(N)=O)C(=O)N[C@@H](CCC(=O)O)C(=O)N[C@@H](CC(C)C)C(=O)N[C@@H](Cc1c[nH]cn1)C(=O)N[C@@H](CCCNC(=N)N)C(=O)N[C@@H](CC(C)C)C(=O)N[C@@H](CCC(N)=O)C(=O)N[C@@H](CC(=O)O)C(=O)N[C@@H](Cc1ccc(O)cc1)C(=O)N1CCC[C@H]1C(=O)N[C@@H](CCCNC(=N)N)C(=O)N[C@H](C(=O)N[C@@H](CC(=O)O)C(=O)N[C@H](C(=O)NCC(=O)N[C@@H](CO)C(=O)NCC(=O)N[C@@H](CO)C(=O)N1CCC[C@H]1C(N)=O)C(C)C)[C@@H](C)O
